This assay addresses Recombinant wild-type mouse talin1 fragment R11 (residues 1,974–2,140) (mouse) (UniProt P26039). Description: ITC. On the technique in general: Isothermal titration calorimetry measures the heat released or taken up as one component is titrated into another.
UniProt P26039, sequence (P26039 1974-2140): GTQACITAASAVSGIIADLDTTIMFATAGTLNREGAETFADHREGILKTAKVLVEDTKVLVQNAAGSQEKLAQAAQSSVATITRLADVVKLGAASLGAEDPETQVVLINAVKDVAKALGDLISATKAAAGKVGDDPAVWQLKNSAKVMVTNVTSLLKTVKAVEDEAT

Turning to “tensin3 H1 peptide (from UniProt Q68CZ2 692-712)”, the Kd worked out at 17 µM and the dH worked out at 4.8 kcal/mol.

What is called Kd is a measure of binding affinity in units of concentration.

Source of the values: paper doi:10.1101/2021.07.16.452612.
